# Source: patent publication US20240301062A1 (BEIGENE SWITZERLAND, published 2024)
# Where a chain is given by its changes, count along the chain named. Where two headings read alike, the source gives them in different places.
# B1: chimeric sp34 (ch-sp34) (antibody, V domains shown)
# VH: EVQLVESGGGLVQPKGSLKLSCAASGFTFNTYAMNWVRQAPGKGLEWVARIRSKYNNYATYYADSVKDRFTISRDDSQSILYLQMNNLKTEDTAMYYCVRHGNFGNSYVSWFAYWGQGTLVTVSS
# VL: QAVVTQESALTTSPGETVTLTCRSSTGAVTTSNYANWVQEKPDHLFTGLIGGTNKRAPGVPARFSGSLIGDKAALTITGAQTEDEAIYFCALWYSNLWVFGGGTKLTVL
# B2: humanized sp34 BG53P (antibody, V domains shown)
# VH: B1 VH with K15G, K19R, S77A, Q78K, I80S, N87S, K89R, T90A
# VL: QAVVTQSPATLSVSPGERATLSCRSSTGAVTTSNYANWVQEKPGQLFTGLIGGTNKRAPGIPARFSGSLSGDEATLTISSLQSEDFAIYFCALWYSNLWVFGGGTKVEIK
# notes: also called hu-sp34
# B3: humanized sp34 BG56P (antibody, V domains shown)
# VH: B1 VH with K15G, K19R, S77A, Q78K, S79N, I80S, N87S, K89R, T90A, M95V
# VL: B2 VL with Q1E, A2I, V4L, E41Q, L46A, F47P, T48R, I88V, F90Y
# Columns and labels:
# [1] = molecular target: T1, human native CD3 on live cells (HuT78, Jurkat) (human, UniProt P07766 23-207; P09693 23-182; P04234 22-171); test: flow cytometry on live HuT78 cells, mouse anti-human IgG secondary, MFI
# T1 construct: whole, on cells; also called human CD3
# Protocol: (§1) For affinity determination, antibodies were captured by anti-human Fc surface, and used in the affinity-assay based on surface plasmon resonance (SPR) technology. The binding activity of humanized sp34 to bind native CD3 on live cells was evaluated using HuT78 cells in a FACS based assay. Live HuT78 cells were seeded in 96-well plate, and were incubated with a series of dilutions of chimeric or humanized sp34. Mouse anti-Human IgG was used as second antibody to detect antibody binding to the cell surface. EC50 values for dose-dependent binding to human native CD3 were determined by fitting the dose-response data to the four-parameter logistic model with GraphPad Prism.
# [2] = molecular target: T2, CD3ε (SPR analyte) (UniProt P07766 23-126, limits assumed); test: SPR, antibody captured by anti-human Fc
# Protocol: as §1
# [3] = molecular target: T1, human native CD3 on live cells (HuT78, …); test: flow cytometry on live HuT78 cells, mouse anti-human IgG secondary, MFI; remark: listed apart in the source
# Protocol: as §1
# [4] = molecular target: T2, CD3ε (SPR analyte); test: SPR, antibody captured by anti-human Fc; remark: listed apart in the source
# Protocol: as §1
# [5] = molecular target: T1, human native CD3 on live cells (HuT78, …); test: FACS, HuT78 cells
# Protocol: as §1
# [6] = molecular target: T1, human native CD3 on live cells (HuT78, …); test: FACS, HuT78 cells; remark: listed apart in the source
# Protocol: as §1
# [7] = molecular target: T2, CD3ε (SPR analyte); test: SPR
# T1 sequence (P07766 23-207, chain 1 of 3): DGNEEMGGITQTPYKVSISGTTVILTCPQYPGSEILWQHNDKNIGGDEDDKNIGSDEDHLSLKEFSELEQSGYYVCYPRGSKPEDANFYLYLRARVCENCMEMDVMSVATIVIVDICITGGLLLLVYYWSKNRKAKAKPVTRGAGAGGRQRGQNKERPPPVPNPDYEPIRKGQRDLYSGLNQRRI
# T1 sequence (P09693 23-182, chain 2 of 3): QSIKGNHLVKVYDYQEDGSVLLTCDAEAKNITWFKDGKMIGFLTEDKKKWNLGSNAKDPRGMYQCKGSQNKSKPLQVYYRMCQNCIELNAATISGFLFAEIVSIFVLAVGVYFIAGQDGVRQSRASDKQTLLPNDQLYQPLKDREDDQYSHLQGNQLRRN
# T1 sequence (P04234 22-171, chain 3 of 3): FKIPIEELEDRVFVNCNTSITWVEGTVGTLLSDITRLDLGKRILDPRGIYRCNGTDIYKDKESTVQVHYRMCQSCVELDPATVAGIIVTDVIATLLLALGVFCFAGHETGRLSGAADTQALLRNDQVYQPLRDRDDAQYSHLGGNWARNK
# T2 sequence (P07766 23-126 limits assumed): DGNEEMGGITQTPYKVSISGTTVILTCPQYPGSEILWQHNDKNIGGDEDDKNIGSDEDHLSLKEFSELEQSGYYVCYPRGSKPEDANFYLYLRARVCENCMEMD
binder,measurement,setting,value
B1,EC50 (read off the curve),[1],~0.3 µg/mL
same,Kd,[2],2.3 nM
same,koff,[2],0.000496 s⁻¹
same,kon,[2],216000 M⁻¹ s⁻¹
same,EC50 (read off the curve),[3],~0.4 µg/mL
same,Kd,[4],2.3 nM
same,koff,[4],0.000496 s⁻¹
same,kon,[4],216000 M⁻¹ s⁻¹
same,EC50,[5],1.9 nM
same,EC50,[6],2.49 nM
B2,EC50 (read off the curve),[1],~0.3 µg/mL
same,Kd,[2],2.65 nM
same,koff,[2],0.000525 s⁻¹
same,kon,[2],198000 M⁻¹ s⁻¹
same,EC50 (read off the curve),[3],~0.3 µg/mL
same,Kd,[4],4.58 nM
same,koff,[4],0.000484 s⁻¹
same,kon,[4],106000 M⁻¹ s⁻¹
same,EC50,[5],1.8 nM
same,EC50,[6],1.72 nM
B3,EC50 (read off the curve),[1],~0.7 µg/mL
same,EC50 (read off the curve),[3],~0.7 µg/mL
same,Kd,[4],7.06 nM
same,koff,[4],0.000325 s⁻¹
same,kon,[4],46000 M⁻¹ s⁻¹
same,EC50,[5],4.69 nM
same,EC50,[6],4.69 nM
same,Kd,[7],7.06 nM
same,koff,[7],0.000325 s⁻¹
same,kon,[7],46000 M⁻¹ s⁻¹
